From patent publication US20180031566A1 (VENTANA MEDICAL SYSTEMS, published 2018)

T1: recombinant protein for uPAR-like domain 2 of C4.4a (amino acids 139-224) (human, UniProt O95274 139-224)
T1 construct: Recombinant domain used in ELISA
T1 sequence: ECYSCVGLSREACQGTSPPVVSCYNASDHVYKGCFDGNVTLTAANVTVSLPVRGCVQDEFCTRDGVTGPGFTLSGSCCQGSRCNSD

T2: recombinant protein for uPAR-Like domain 1 of C4.4a (amino acids 31-116) (human, UniProt O95274 31-116)
T2 construct: Recombinant domain used in ELISA
T2 sequence: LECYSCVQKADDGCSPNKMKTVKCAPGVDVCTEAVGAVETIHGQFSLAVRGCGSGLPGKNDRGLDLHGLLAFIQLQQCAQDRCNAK


What was measured:
[1] = molecular target: T1, recombinant protein for uPAR-like …; test: ELISA with recombinant domain proteins
[2] = molecular target: T2, recombinant protein for uPAR-Like …; test: ELISA with recombinant domain proteins

binding result [1]	binding result [2]	Binder
binds	–	anti-C4.4a antibody clone S42H9L5 (antibody, V domains shown, Rabbit monoclonal antibody; also called SP246 (a S42H9L5 clone)) VH: QSLEESGGRLVKPDETLTLTCTVSGFSLNTVAISWVRQAPGKGLEWIGFIHPTVNTYYARWAKGRFTISRASSTTVDLKVTSLTFEDAATYFCVRGNAHYDIWGPGTLVTVSL VL: AFELTQTPSLVSAAVGGTVTISCQSSQSVYSDNYLAWYQQKPGQRPKLLIYKASDLASGVPSRFKGSGSGTEFTLTISDLECADAATYYCQSYYGVSSDSNAFGGGTEVVVK
–	binds	anti-C4.4a antibody clone S20H1L1 (antibody, V domains shown, Rabbit monoclonal antibody; also called SP245 (a S20H1L1 clone)) VH: QEQLEESGGGLVKPGGTLTLTCTASGFSLISTYYICWVRQAPGKGLEWIGCIPLSHSVSWYANWVNGRFSISKTSSTTVTLKMASLTDADTATYFCGRGSSGWGVDSKLWGPGTLVTVSS VL: AVLTQTPSPVSASVGGTVTINCQSSPSVASGYLSWFQQKPGQPPKLLIYRASTLVSGVPSRFKGSGSGTHFTLTISDVQCDDAATYYCAGAYSSRSDTTFGGGTEVVVK
